The target of series [1] is T1, CtNAT10 (Chaetomium thermophilum NAT10; Kre33) (Thermochaetoides thermophila, UniProt G0S273).
T1 construct: codon-optimised synthetic gene; Sf9 (functional assays and 9B0I) or E. coli (9AYM, 9B0E)
T1 sequence (G0S273 1-1073): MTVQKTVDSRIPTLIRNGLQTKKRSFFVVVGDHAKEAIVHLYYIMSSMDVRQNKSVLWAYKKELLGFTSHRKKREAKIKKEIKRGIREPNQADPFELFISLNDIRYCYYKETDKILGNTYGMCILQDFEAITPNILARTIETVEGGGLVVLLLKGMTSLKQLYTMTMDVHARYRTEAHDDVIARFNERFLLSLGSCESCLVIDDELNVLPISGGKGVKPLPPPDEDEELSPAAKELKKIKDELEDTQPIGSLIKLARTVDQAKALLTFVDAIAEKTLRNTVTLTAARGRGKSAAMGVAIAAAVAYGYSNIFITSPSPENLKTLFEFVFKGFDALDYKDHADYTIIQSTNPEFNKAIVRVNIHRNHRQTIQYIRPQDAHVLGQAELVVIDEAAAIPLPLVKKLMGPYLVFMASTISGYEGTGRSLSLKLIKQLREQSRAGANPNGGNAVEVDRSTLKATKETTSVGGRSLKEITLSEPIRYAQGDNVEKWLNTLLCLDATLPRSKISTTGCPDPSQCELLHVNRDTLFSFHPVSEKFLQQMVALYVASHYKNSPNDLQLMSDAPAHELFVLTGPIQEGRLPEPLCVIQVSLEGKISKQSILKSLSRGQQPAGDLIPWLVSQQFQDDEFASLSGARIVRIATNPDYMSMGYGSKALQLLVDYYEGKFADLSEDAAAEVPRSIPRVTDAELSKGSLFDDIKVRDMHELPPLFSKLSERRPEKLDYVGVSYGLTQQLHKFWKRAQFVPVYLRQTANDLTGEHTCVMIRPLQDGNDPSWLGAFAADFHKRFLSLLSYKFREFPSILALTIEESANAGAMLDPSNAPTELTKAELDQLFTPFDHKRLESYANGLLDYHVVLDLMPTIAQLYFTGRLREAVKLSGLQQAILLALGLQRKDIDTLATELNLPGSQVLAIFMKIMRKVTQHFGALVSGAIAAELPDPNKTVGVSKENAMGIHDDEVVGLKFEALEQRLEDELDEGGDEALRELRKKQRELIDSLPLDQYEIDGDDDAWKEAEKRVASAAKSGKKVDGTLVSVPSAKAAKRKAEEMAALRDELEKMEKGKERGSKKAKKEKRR
Briefly: differential scanning fluorimetry, SYPRO orange. The class given is binding. The settings on record: apo Tm 42.0 ± 0.3 °C, 5 mM MgCl2, Hepes pH 7.5, Tm with ligand, not a shift. (DSF heats the sample and reads unfolding from a dye or from intrinsic fluorescence.)

The target of series [2] is Chaetomium thermophilum NAT10 (CtNAT10), E. coli-produced recombinant (Chaetomium thermophilum). Nature of the series: mass photometry; 1 ul of 200 nM protein stock into 19 ul dilution buffer (10 nM); 300 mM NaCl, 25 mM Hepes-NaOH pH 7.5, 1 mM TCEP; room temperature.
Series [3] concerns the target Chaetomium thermophilum NAT10 (CtNAT10), Sf9-produced recombinant (Chaetomium thermophilum). The description is as above.
Series [4] concerns the target T2, CtNAT10 WT (Chaetomium thermophilum, UniProt G0S273 1-1073).
T2 sequence: T1 sequence (G0S273 1-1073)
Nature of the series: EMSA; 0.5 mM ATP, 0.1 mM acetyl-CoA; 50 mM Hepes-KOH pH 7.6, 90 mM NaCl (Fig 1B) or 75 mM NaCl + 0.2 mg/ml BSA (Fig S4A), 12 mM KCl, 10 mM MgCl2, 1 mM DTT, 0.5 mM ATP, 0.1 mM acetyl-CoA; Fig 1B 15. To be noted: protein: recombinant; tags: N-terminal 6xHis; chain copies: 2; tRNA fold.

For series [5], the target named is T2, CtNAT10 WT. Briefly: EMSA; no THUMPD1; 0.5 mM ATP, 0.1 mM acetyl-CoA; 50 mM Hepes-KOH pH 7.6, 90 mM NaCl (Fig 1B) or 75 mM NaCl + 0.2 mg/ml BSA (Fig S4A), 12 mM KCl, 10 mM MgCl2, 1 mM DTT, 0.5 mM ATP, 0.1 mM acetyl-CoA; Fig 1B 15. The settings on record: protein: recombinant; tags: N-terminal 6xHis; chain copies: 2; tRNA fold. (In general: In EMSA bound probe runs differently from free probe, usually more slowly.)

Consider `Nc1ncnc2c1ncn2[C@@H]1O[C@H](COP(=O)(O)OP(=O)(O)OP(=O)(O)O)[C@@H](O)[C@H]1O` [ATP], for which, in series [1] (ligand series 0.25-2500 μM), the Tm is 53.8 ± 0.1 °C. Still for that read-out and setting: next, `CC(=O)SCCNC(=O)CCNC(=O)[C@H](O)C(C)(C)COP(=O)(O)OP(=O)(O)OC[C@H]1O[C@@H](n2cnc3c(N)ncnc32)[C@H](O)[C@@H]1OP(=O)(O)O` [acetyl-CoA]: 46.1 ± 0.1 °C.

For the molecule `CC(C)(COP(=O)(O)OP(=O)(O)OC[C@H]1O[C@@H](n2cnc3c(N)ncnc32)[C@H](O)[C@@H]1OP(=O)(O)O)[C@@H](O)C(=O)NCCC(=O)NCCSCC(=O)Nc1ccn([C@@H]2O[C@H](CO)[C@@H](O)[C@H]2O)c(=O)n1` [cytidine-amide-CoA], the Tm in series [1] (ligand series 0.20-2000 μM) was 46.4 ± 0.1 °C. In general, stoichiometry N refers to a count of units in the complex or per binding partner. For the molecule “Chaetomium thermophilum NAT10 (CtNAT10), E. coli-produced recombinant (enzyme)”, the stoichiometry N in series [2] stood at 2. As to “Chaetomium thermophilum NAT10 (CtNAT10), Sf9-produced recombinant (enzyme)”, the stoichiometry N in series [3] worked out at 2.

B1: ct-tRNASer (synthetic) (structured_RNA)
RNA: GACAACUUGGCCGAGUGGUUAAGGCGACAGACUUGAAAUCUGUUGGGUUCGCCCUCACAGGUUCGAAUCCUGUAGUUGUCG
On to B1, for which the binding result with CtNAT10 WT [4] is “binds”.

B2: CttRNAAla (IVT) (structured_RNA)
RNA: GGGCGUGUAGCUCAGUUGGUAGAGCGUUCGCUUAGCAUGCGAGAGGUCCUGGGUUCGAUUCCCAGCCCGUCCA
Take B2: in the series with CtNAT10 WT [5], the binding result is “binds”.

B3: ct-tRNALeu (synthetic) (structured_RNA)
RNA: GGCAAGAUGGCCGAGCGGUCCAAGGCGCCAGGUUCAGGUCCUGGUCUCCGCAAGGGGGCGUGAGUUCGAAUCUCACUCUUGUCA
For B3, the binding result with CtNAT10 WT [4] was “binds”.

The record behind these values is publication PMC13433802, “Structure of the NAT10 acetyltransferase and mechanism of tRNA acetylation” (Nature Communications, 2026).
